Test results published in US11994512B2, “Single-cell genomic methods to generate ex vivo cell systems that recapitulate in vivo biology with improved fidelity” (Massachusetts Institute of Technology, priority 2018, dated 2024).

B1: P98063 (protein, UniProt P98063 1-991, looked up)
chain: MPGVARPPLPLLSLPLLLLLLLLPRAGRPLDLADYTYDLGEEDAPELLNYKDPCKAAAFLGDIALDEEDLRAFQVQQAAVLRQQTARRPSIKAAGNSSALGGQGTSGQPQRESRGRWRGRPRSRRAATSRPERVWPDGVIPFVIGGNFTGSQRAVFRQAMRHWEKHTCVTFLERTDEDSYIVFTYRPCGCCSYVGRRGGGPQAISIGKNCDKFGIVVHELGHVIGFWHEHTRPDRDRHVSIVRENIQPGQEYNFLKMEVQEVESLGETYDFDSIMHYARNTFSRGIFLDTIVPKYEVNGVKPSIGQRTRLSKGDIAQARKLYKCPACGETLQDSTGNFSSPEYPNGYSAHMHCVWRISVTPGEKIILNFTSMDLYRSRLCWYDYVEVRDGFWRKAPLRGRFCGGKLPEPIVSTDSRLWVEFRSSSNWVGKGFFAVYEAICGGDVKKDNGHIQSPNYPDDYRPSKVCIWRIQVSEGFHVGLTFQSFEIERHDSCAYDYLEVRDGHSESSNLIGRYCGYEKPDDIKSTSSRLWLKFVSDGSINKAGFAVNFFKEVDECSRPNRGGCEQRCLNTLGSYKCSCDPGYELAPDKRRCEAACGGFLTKLNGSITSPGWPKEYPPNKNCIWQLVAPTQYRISLQFDFFETEGNDVCKYDFVEVRSGLTADSKLHGKFCGSEKPEVITSQYNNMRVEFKSDNTVSKKGFKAHFFSDKDECSKDNGGCQQDCVNTFGSYECQCRSGFVLHDNKHDCKEAGCEHKVTSTSGTITSPNWPDKYPSKKECTWAISSTPGHRVKLTFVEMDIESQPECAYDHLEVFDGRDAKAPVLGRFCGSKKPEPVLATGNRMFLRFYSDNSVQRKGFQASHSTECGGQVRADVKTKDLYSHAQFGDNNYPGGVDCEWVIVAEEGYGVELVFQTFEVEEETDCGYDYIELFDGYDSTAPRLGRYCGSGPPEEVYSAGDSVLVKFHSDDTISKKGFHLRYTSTKFQDTLHSRK
modifications: full-length
B2: Q08652 (protein, UniProt Q08652 1-134, looked up)
chain: MTKDQNGTWEMESNENFEGYMKALDIDFATRKIAVRLTQTKIITQDGDNFKTKTNSTFRNYDLDFTVGVEFDEHTKGLDGRHVKTLVTWEGNTLVCVQKGEKENRGWKQWVEGDKLYLELTCGDQVCRQVFKKK
modifications: full-length
B3: Q03157 (protein, UniProt Q03157 1-654, looked up)
chain: MGPTSPAARGQGRRWRPPPLPLLLPLSLLLLRAQLAVGNLAVGSPSAAEAPGSAQVAGLCGRLTLHRDLRTGRWEPDPQRSRRCLLDPQRVLEYCRQMYPELHIARVEQAAQAIPMERWCGGTRSGRCAHPHHEVVPFHCLPGEFVSEALLVPEGCRFLHQERMDQCESSTRRHQEAQEACSSQGLILHGSGMLLPCGSDRFRGVEYVCCPPPATPNPSGMAAGDPSTRSWPLGGRAEGGEDEEEVESFPQPVDDYFVEPPQAEEEEEEEEERAPPPSSHTPVMVSRVTPTPRPTDGVDVYFGMPGEIGEHEGFLRAKMDLEERRMRQINEVMREWAMADSQSKNLPKADRQALNEHFQSILQTLEEQVSGERQRLVETHATRVIALINDQRRAALEGFLAALQGDPPQAERVLMALRRYLRAEQKEQRHTLRHYQHVAAVDPEKAQQMRFQVQTHLQVIEERMNQSLGLLDQNPHLAQELRPQIQELLLAEHLGPSELDASVPGSSSEDKGSLQPPESKDDPPVTLPKGSTDQESSSSGREKLTPLEQYEQKVNASAPRGFPFHSSDIQRDELAPSGTGVSREALSGLLIMGAGGGSLIVLSLLLLRKKKPYGTISHGVVEVDPMLTLEEQQLRELQRHGYENPTYRFLEERP
modifications: full-length
B4: Q07797 (protein, UniProt Q07797 1-577, looked up)
chain: MALLWLLSVFLLVPGTQGTEDGDMRLVNGASANEGRVEIFYRGRWGTVCDNLWNLLDAHVVCRALGYENATQALGRAAFGPGKGPIMLDEVECTGTESSLASCRSLGWMVSRCGHEKDAGVVCSNDTTGLHILDLSGELSDALGQIFDSQQGCDLFIQVTGQGYEDLSLCAHTLILRTNPEAQALWQVVGSSVIMRVDAECMPVVRDFLRYFYSRRIEVSMSSVKCLHKLASAYGATELQDYCGRLFATLLPQDPTFHTPLDLYAYARATGDSMLEDLCVQFLAWNFEPLTQSESWSAVPTTLIQALLPKSELAVSSELDLLKAVDQWSTETIASHEDIERLVEQVRFPMMLPQELFELQFNLSLYQDHQALFQRKTMQALEFHTVPVEVLAKYKGLNLTEDTYKPRLYTSSTWSSLVMASTWRAQRYEYNRYNQLYTYGYGSVARYNSYQSFQTPQHPSFLFKDKQISWSATYLPTMQSCWNYGFSCTSNELPVLGLTTSSYSNPTIGYENRVLILCGGYSVVDVTSFEGSKAPIPTALDTNSSKTPSLFPCASGAFSSFRVVIRPFYLTNSTDMV
modifications: full-length
B5: P97290 (protein, UniProt P97290 1-504, looked up)
chain: MASRLTPLTLLLLLLAGDRAFSDPEATSHSTQDPLEAQAKSRESFPERDDSWSPPEPTVLPSTWPTTSVAITITNDTMGKVANESFSQHSQPAAQLPTDSPGQPPLNSSSQPSTASDLPTQATTEPFCPEPLAQCSDSDRDSSEAKLSEALTDFSVKLYHAFSATKMAKTNMAFSPFSIASLLTQVLLGAGDSTKSNLESILSYPKDFACVHQALKGFSSKGVTSVSQIFHSPDLAIRDTYVNASQSLYGSSPRVLGPDSAANLELINTWVAENTNHKIRKLLDSLPSDTCLVLLNAVYLSAKWKITFEPKKMMAPFFYKNSMIKVPMMSSVKYPVAQFDDHTLKAKVGQLQLSHNLSFVIVVPVFPKHQLKDVEKALNPTVFKAIMKKLELSKFLPTYLTMPHIKVKSSQDMLSVMEKLEFFDFTYDLNLCGLTEDPDLQVSAMKHETVLELTESGVEAAAASAISFGRSLPIFEVQRPFLFLLWDQQHRFPVFMGRVYDPRG
modifications: full-length
B6: Q00623 (protein, UniProt Q00623 1-264, looked up)
chain: MKAVVLAVALVFLTGSQAWHVWQQDEPQSQWDKVKDFANVYVDAVKDSGRDYVSQFESSSLGQQLNLNLLENWDTLGSTVSQLQERLGPLTRDFWDNLEKETDWVRQEMNKDLEEVKQKVQPYLDEFQKKWKEDVELYRQKVAPLGAELQESARQKLQELQGRLSPVAEEFRDRMRTHVDSLRTQLAPHSEQMRESLAQRLAELKSNPTLNEYHTRAKTHLKTLGEKARPALEDLRHSLMPMLETLKTQVQSVIDKASETLTAQ
modifications: full-length
B7: Q05186 (protein, UniProt Q05186 1-325, looked up)
chain: MARGGRLGLALGLLLALVLALRAKPTVRKERVVRPDSELGERPPEDNQSFQYDHEAFLGKEDSKTFDQLSPDESKERLGKIVDRIDSDGDGLVTTEELKLWIKRVQKRYIYDNVAKVWKDYDRDKDEKISWEEYKQATYGYYLGNPAEFHDSSDHHTFKKMLPRDERRFKASDLDGDLTATREEFTAFLHPEEFEHMKEIVVLETLEDIDKNGDGFVDQDEYIADMFSHEDNGPEPDWVLSEREQFNDFRDLNKDGKLDKDEIRHWILPQDYDHAQAEARHLVYESDKNKDEMLTKEEILDNWNMFVGSQATNYGEDLTKNHDEL
modifications: full-length
B8: P97314 (protein, UniProt P97314 1-193, looked up)
chain: MPVWGGGNKCGACGRTVYHAEEVQCDGRSFHRCCFLCMVCRKNLDSTTVAIHDEEIYCKSCYGKKYGPKGYGYGQGAGTLNMDRGERLGIKPESAQPHRPTTNPNTSKFAQKYGGAEKCSRCGDSVYAAEKIIGAGKPWHKNCFRCAKCGKSLESTTLTEKEGEIYCKGCYAKNFGPKGFGYGQGAGALVHAQ
modifications: full-length
B9: P97449 (protein, UniProt P97449 1-966, looked up)
chain: MAKGFYISKTLGILGILLGVAAVCTIIALSVVYAQEKNRNAENSATAPTLPGSTSATTATTTPAVDESKPWNQYRLPKTLIPDSYRVILRPYLTPNNQGLYIFQGNSTVRFTCNQTTDVIIIHSKKLNYTLKGNHRVVLRTLDGTPAPNIDKTELVERTEYLVVHLQGSLVEGRQYEMDSQFQGELADDLAGFYRSEYMEGDVKKVVATTQMQAADARKSFPCFDEPAMKAMFNITLIYPNNLIALSNMLPKESKPYPEDPSCTMTEFHSTPKMSTYLLAYIVSEFKNISSVSANGVQIGIWARPSAIDEGQGDYALNVTGPILNFFAQHYNTSYPLPKSDQIALPDFNAGAMENWGLVTYRESSLVFDSQSSSISNKERVVTVIAHELAHQWFGNLVTVAWWNDLWLNEGFASYVEYLGADYAEPTWNLKDLMVLNDVYRVMAVDALASSHPLSSPADEIKTPDQIMELFDSITYSKGASVIRMLSSFLTEDLFKKGLSSYLHTYQYSNTVYLDLWEHLQKAVNQQTAVQPPATVRTIMDRWILQMGFPVITVNTNTGEISQKHFLLDSKSNVTRPSEFNYIWIAPIPFLKSGQEDHYWLDVEKNQSAKFQTSSNEWILLNINVTGYYLVNYDENNWKKLQNQLQTDLSVIPVINRAQIIHDSFNLASAKMIPITLALDNTLFLVKEAEYMPWQAALSSLNYFTLMFDRSEVYGPMKRYLKKQVTPLFFYFQNRTNNWVNRPPTLMEQYNEINAISTACSSGLKECRDLVVELYSQWMKNPNNNTIHPNLRSTVYCNAIAFGGEEEWNFAWEQFRNATLVNEADKLRSALACSKDVWILNRYLSYTLNPDYIRKQDTTSTIISIASNVAGHPLVWDFVRSNWKKLFENYGGGSFSFANLIQGVTRRFSSEFELQQLEQFKADNSATGFGTGTRALEQALEKTRANIDWVKENKDAVFKWFTENSS
modifications: full-length

What follows are molecules tested on intracellular proteome of ENR+CD and ENR organoids (assay: LC-MS/MS TMT proteomics of ENR+CD versus ENR organoids). Details: protein abundance, ENR+CD versus ENR organoids; aggregate of the four sample pairs.
Type: cell-based, C57BL/6 mice

Point of comparison: B7, “Average logFC” value 1.307. Against it:
- B1 — within 0.2 log units, 1.311
- B2 — lower, −1.48
- B3 — within 0.2 log units, 1.178
- B4 — within 0.2 log units, 1.146
- B5 — within 0.2 log units, 1.245
- B6 — lower, −2.027
- B8 — lower, −1.204
- B9 — within 0.2 log units, 1.247

Same assay, conditions: protein abundance, ENR+CD versus ENR organoids; replicate M1-1; log2 ratio

Point of comparison: B8, “M1-1 Log2 Median Normalized” value −1.447. Against it:
- B1 — higher, 1.296
- B2 — within 0.2 log units, −1.364
- B3 — higher, 1.177
- B4 — higher, 1.212
- B5 — higher, 1.362
- B6 — within 0.2 log units, −1.311
- B7 — higher, 1.602
- B9 — higher, 1.246

Same assay, conditions: protein abundance, ENR+CD versus ENR organoids; replicate M1-2; log2 ratio

Point of comparison: B2, “M1-2 Log2 Median Normalized” value −2.41. Against it:
- B1 — higher, 1.342
- B3 — higher, 0.671
- B4 — higher, 1.255
- B5 — higher, 1.123
- B6 — within 0.2 log units, −2.229
- B7 — higher, 1.092
- B8 — higher, −1.021
- B9 — higher, 1.528

Same assay, conditions: protein abundance, ENR+CD versus ENR organoids; replicate M2-1; log2 ratio

Point of comparison: B4, “M2-1 Log2 Median Normalized” value 1.1065. Against it:
- B1 — within 0.2 log units, 1.2215
- B2 — lower, −1.7785
- B3 — within 0.2 log units, 1.2695
- B5 — within 0.2 log units, 1.2185
- B6 — lower, −2.6175
- B7 — within 0.2 log units, 1.0235
- B8 — lower, −1.3045
- B9 — within 0.2 log units, 1.2875

Same assay, conditions: protein abundance, ENR+CD versus ENR organoids; replicate M2-2; log2 ratio

Point of comparison: B9, “M2-2 Log2 Median Normalized” value 0.807. Against it:
- B1 — higher, 1.383
- B2 — lower, −0.366
- B3 — higher, 1.559
- B4 — higher, 1.011
- B5 — higher, 1.278
- B6 — lower, −1.952
- B7 — higher, 1.511
- B8 — lower, −1.045

Same assay, conditions: up = enriched in ENR+CD, down = enriched in ENR; FDR<0.05 and log fold change cut-off

For B1, the change was “up”.
With B2 the change was “down”.
In the case of B3, the change is reported as “up”.
With B4 the change was “up”.
In the case of B5, the change is reported as “up”.
In the case of B6, the change is reported as “down”.
B7 was tested, and the change was “up”.
With B8 the change was “down”.
For B9, the change was “up”.
